# Experimental data: patent publication US8933202B2, “AXL antibodies” (U3 Pharma GmbH, priority 2007, dated 2015)
# B1: 10D12: antagonistic rat anti-AXL monoclonal antibody (antibody, V domains shown)
# VL: DIQMTQAPSSLPASLGDRVTIACRASQDIGNYLRWFQQKPGKSPRLMISGATNLAAGVPSRFSGSRSGSDYSRTISSLESEDMADYYCLQSKESPWTFGGGTKLELK
# VH: EVQLQESGPGLVKPSQSLSLTCSVTGYSITSNYWGWIRKFPGNKMEWMGYITNSGGTAYNPSLKSRISITRDTSKNQFFLQLNSVIPEDSATYFCSRTPWDWGQGVMVTVSS
# Experiments:
# NIH3T3-pLXSN control = assay: Primary FACS screen of hybridoma antibodies, binding to mock control cells
# Procedure: Monoclonal rat anti-AXL antibodies were raised by injection of approximately 10×10^6 frozen cells of RatI-AXL cl.2 both i.p. and subcutaneously into Lou/C or Long Evans rats. After an 8-week interval, a final boost was given i.p and subcutaneously 3 d before fusion. Fusion of the myeloma cell line P3X63-Ag8.653 with the rat immune spleen cells was performed according to standard procedures and yielded 105 hybridomas. After 2 weeks, first supernatants from hybridomas were collected and tested in a primary FACS screen for binding to NIH3T3-AXL cl.7 fibroblasts versus NIH3T3-Mock control cells. Clones positive for AXL binding were further cultivated. From 50 ml supernatant of these clones, antibodies were purified and re-analyzed for specific binding to AXL on NIH3T3-AXL cl.7 fibroblasts versus NIH3T3-Mock control cells. Purified antibodies specifically binding to NIH3T3-AXL cl. 7 fibroblasts but not NIH3T3-Mock control cells were furthermore tested in Akt-Kinase phosphorylation ELISAs, and ELISAs to determine the isotype were performed. For purification of rat antibodies, supernatants were spun for 20 minutes at 5,000 g and subsequently sterile filtered. 500 μl of protein G sepharose FF were added and incubated at 4° C. for at least 1 h on a spinning wheel. […]
# human AXL-ECD = target: T1, human AXL-ECD (Homo sapiens, UniProt P30530); assay: Competition ELISA on AXL-ECD coated plates; format: binding; conditions: 10 μg/ml unbiotinylated, 0.5 μg/ml biotinylated antibody
# T1 construct: purchased R&D Systems 154-AL
# T1 sequence (P30530 26-451 limits assumed): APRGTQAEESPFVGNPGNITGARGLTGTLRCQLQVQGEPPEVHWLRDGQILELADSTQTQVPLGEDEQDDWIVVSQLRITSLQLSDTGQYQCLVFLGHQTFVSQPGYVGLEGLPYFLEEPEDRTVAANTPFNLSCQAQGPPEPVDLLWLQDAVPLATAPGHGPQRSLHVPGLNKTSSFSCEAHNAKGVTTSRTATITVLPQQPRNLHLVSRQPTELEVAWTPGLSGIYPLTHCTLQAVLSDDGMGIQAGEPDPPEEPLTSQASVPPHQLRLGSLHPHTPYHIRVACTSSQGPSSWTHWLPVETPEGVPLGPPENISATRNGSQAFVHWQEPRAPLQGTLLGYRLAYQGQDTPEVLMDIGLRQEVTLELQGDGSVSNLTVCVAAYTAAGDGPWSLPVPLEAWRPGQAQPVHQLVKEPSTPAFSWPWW
# Procedure: Therefore binding of biotinylated anti-AXL antibodies to AXL-ECD domain-coated plates preincubated with anti-AXL antibodies was determined in a competition ELISA. […] On day 1, black 96 well Maxi-Sorp plates (Nunc) were coated with 100 μl/well of 1 μg/ml human AXL-ECD (R&D Systems #154-AL) in PBS over night at 4° C. […] After washing 6× with wash buffer (PBS, 0.1% TWEEN-20), 80 μl/well AP-conjugated Streptavidin (Chemicon #SA110) diluted 1:4,000 in blocking buffer were added, incubated for 20 min at room temperature washed again 6× with wash buffer and finally washed once with PBS. For detection, 100 μl/well Attophos substrate solution (Roche #11681982) were added. Using a Victor plate reader (Perkin Elmer), the fluorescence of each well was collected at an excitation wavelength of 430 nm an emission wavelength of 580 nm.
# [1] = test system: NCI-H292 lung cancer cells; assay: Wound healing/scratch assay; format: cell-based, human; conditions: 10 μg/ml antibody, 24 h, compared to isotypic control antibody
# Description: To examine the migration and proliferation rates of different cells and culture conditions, in vitro wound healing/scratch assays are being employed for many years. These assays generally involve growing a confluent cell monolayer first. A small area is then disrupted and a group of cells are being destroyed or displaced by scratching a line through the layer with, for example, a pipette tip. The open gap is then inspected microscopically over time as the cells move in and fill the damaged area (“healing”). In brief, 1.5×10^6 NCI-H292 lung cancer cells were seeded per well of a 12 well dish and cultured in normal growth medium (RPMI, 10% FCS). After 8 h, cells were rinsed with PBS and starved in low serum medium (RPMI, 0.5% FCS) over night for 24 h. Using a sterile 200 μl pipette tip, three separate uniform wounds per well were scratched through the confluent NCI-H292 cell monolayers. […] Cells were permitted to migrate into the area of clearing for 24 h, washed once with PBS and fixed with ice cold Methanol (100%) at −20° C. After cells were stained with crystal violet (0.5% in 20% Methanol), rinsed with water and dried over night, photos of the wounds were taken.
# AXL = target: T2, AXL (Homo sapiens, UniProt P30530); assay: AXL receptor tyrosine phosphorylation ELISA; format: cell-based; design: expressed in transfected cells; host or cells: NIH3T3-AXL cl.7 (pLXSN-hAXL) and NCI-H292 lung cancer cells (endogenous AXL); conditions: 10 μg/ml antibody, 400 ng/ml Gas6; NIH3T3-AXL cl.7 fibroblasts and NCI-H292 lung cancer cells
# T2 sequence (P30530 26-894): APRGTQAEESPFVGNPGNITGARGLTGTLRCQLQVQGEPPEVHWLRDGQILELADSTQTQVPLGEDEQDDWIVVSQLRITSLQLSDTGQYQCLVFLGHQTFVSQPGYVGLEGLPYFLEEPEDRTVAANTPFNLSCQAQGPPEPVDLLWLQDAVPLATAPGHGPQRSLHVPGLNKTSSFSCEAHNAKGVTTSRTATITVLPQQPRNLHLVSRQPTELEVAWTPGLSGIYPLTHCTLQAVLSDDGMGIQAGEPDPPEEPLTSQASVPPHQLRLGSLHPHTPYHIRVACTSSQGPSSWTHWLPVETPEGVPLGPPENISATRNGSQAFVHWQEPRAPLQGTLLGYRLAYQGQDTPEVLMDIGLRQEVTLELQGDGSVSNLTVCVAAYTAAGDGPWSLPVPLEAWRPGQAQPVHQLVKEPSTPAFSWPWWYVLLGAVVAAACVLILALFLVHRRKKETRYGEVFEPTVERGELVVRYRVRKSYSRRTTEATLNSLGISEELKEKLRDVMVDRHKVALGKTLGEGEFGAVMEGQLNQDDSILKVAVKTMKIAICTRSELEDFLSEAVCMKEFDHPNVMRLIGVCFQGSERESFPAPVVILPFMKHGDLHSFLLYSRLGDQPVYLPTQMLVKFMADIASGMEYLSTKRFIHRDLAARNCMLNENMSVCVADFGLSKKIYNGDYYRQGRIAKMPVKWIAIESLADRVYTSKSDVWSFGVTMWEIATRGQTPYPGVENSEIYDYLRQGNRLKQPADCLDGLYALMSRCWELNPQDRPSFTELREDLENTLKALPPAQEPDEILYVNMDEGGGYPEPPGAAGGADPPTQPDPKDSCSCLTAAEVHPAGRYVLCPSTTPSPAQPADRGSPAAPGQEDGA
# Procedure: ELISA experiments were performed in order to investigate whether the rat anti-AXL antibodies of the invention are able to block ligand Gash-mediated activation of AXL. Gas6-mediated AXL activation was detected by increased receptor tyrosine phosphorylation. In brief, on day 1, 3×10^4 cells per well were seeded in normal growth medium in flat-bottom 96 well plates. The next day, growth medium was replaced by serum-free medium to starve cells over night for 24 h. Also over night, black Maxi-Sorp 96 well plates (Nunc) were coated with mouse anti-phospho-tyrosine antibody 4G10 at 2 μg/ml PBS and 4° C. On day 3, the 4G10 antibody solution was removed and Maxi-Sorp wells were blocked with PBS, 0.5% BSA for at lest 4 h at room temperature. […] Medium was then flicked out and cells were lysed in lysis buffer (50 mM HEPES, pH 7.5, 150 mM NaCl, 1 mM EDTA, 10% glycerine, and 1% Triton X-100) supplemented with phosphatase and protease inhibitors (10 mM Na4P2O7, 1 mM phenylmethylsulfonyl fluoride, 1 mM orthovanadate, 1 mM NaF, and 0.5% aprotinin) for 30 min on ice. […] Using a Victor plate reader (Perkin Elmer), the fluorescence of each well was collected at an excitation wavelength of 430 nm and an emission wavelength of 580 nm.
molecule,measurement,setting,value
B1,FACS shift NIH3T3-pLXSN control,NIH3T3-pLXSN control,0.5
same,competition with antagonistic anti-AXL antibodies for binding to AXL-ECD,human AXL-ECD,compete with each other for the same or structurally adjacent epitopes
same,re-population of the cleared area (wound closure),[1],reduced the re-population of the cleared area
same,ligand-mediated AXL activation (phosphorylation),AXL,able to block or reduce ligand-mediated AXL activation
